Measurements: patent US7018791B1, “Binding complexes” (Institute of Cancer Research: Royal Cancer Hospital, priority 1997, dated 2006)
* marks the point of attachment. Biotin = O=C1N[C@H]2[C@H](CS[C@H]2CCCCC(=O)*)N1

Columns and labels:
CCT [1] = tested on: T1, CCT; experiment: Interaction of soluble biotinylated peptides with CCT (native PAGE, streptavidin/Neutravidin-HRP blot); format: binding, mouse
T1 construct: Take 20S mouse testis sucrose gradient fractions enriched in CCT; from tissue; host or cells: mouse testis, 20S sucrose gradient fractions

[2] = target: T2, CCT (chaperonin containing TCP-1) complex from mouse testis (mouse, UniProt P11983 1-556; P80314 2-535; P80318 1-545; P80315 1-539; P80316 2-541; P80317 …); experiment: biotinylated peptide with CCT in solution, 6% native PAGE, blot probed with streptavidin/Neutravidin-HRP
T2 construct: Hetero-oligomer: eight different subunits in each of two rings (double toroid, about 920 kDa), enriched from mouse testis 20S sucrose gradient fractions; Testis also holds CCTζ2; also called CCT complex; intact CCT

CCT [3] = experiment: In vitro translation in rabbit reticulocyte lysate, interaction with CCT on native PAGE; format: binding; conditions: kinetics different from folding substrates actin or tubulins
Experimental: Time courses of interactions of cyclins with CCT were analysed on 6% native polyacrylamide gels (Liou & Willison,EMBO J. 16, 4311–4316, 1997). At the indicated times, 5 μl aliquots of the lysate reactions were added to 7 μl of […] EDTA (ph 8.0) and 4 μl of 4× gel loading buffer and placed on ice. The lanes 1–6 show CCT a at t=0, 5, 10, 20, 30, 60 minutes. Lanes 7–12 show pBSK CY1 1 (mouse D1) at t=0, 5, 10, 20, 30, 60 minutes.
Upon in vitro translation of actin mRNA in rabbit reticulocyte lysate, several truncated forms of ^35S-actin are captured by and accumulate on CCT. This is also the case for α-tubulin (Liou, K. F., et al, Biological Chem. Hoppe-Seler 379, 311–319, 1998). […] Thus, the actin is fragments are not ribosome released nascent chains, but are the consequence of initiation of translation at internal methionine residues in actin, and a comparison of the experimentally determined molecular weights of the truncated forms with the sequential occurrence of the methionines in mouse β-actin supports this interpretation. […] Therefore, no fragments smaller than 29 kDa are produced by internal initiation in the IVT reaction.
The present inventors made fusion proteins which linked β-Actin Site I (residues 31–70) or Site II residues 178–262; 6 of the peptides (Table 2) are located in this segment) containing fragments to the C-terminus of Ha-Ras (residues 1–166). […]

[4] = target: T3, human CCTγ subunit (human 293 cells) (human, UniProt P49368 1-545); experiment: superimposable bands, non-denaturing PAGE Western blot of sucrose fractions 13 and 14 of human 293 cells
T3 sequence (looked up): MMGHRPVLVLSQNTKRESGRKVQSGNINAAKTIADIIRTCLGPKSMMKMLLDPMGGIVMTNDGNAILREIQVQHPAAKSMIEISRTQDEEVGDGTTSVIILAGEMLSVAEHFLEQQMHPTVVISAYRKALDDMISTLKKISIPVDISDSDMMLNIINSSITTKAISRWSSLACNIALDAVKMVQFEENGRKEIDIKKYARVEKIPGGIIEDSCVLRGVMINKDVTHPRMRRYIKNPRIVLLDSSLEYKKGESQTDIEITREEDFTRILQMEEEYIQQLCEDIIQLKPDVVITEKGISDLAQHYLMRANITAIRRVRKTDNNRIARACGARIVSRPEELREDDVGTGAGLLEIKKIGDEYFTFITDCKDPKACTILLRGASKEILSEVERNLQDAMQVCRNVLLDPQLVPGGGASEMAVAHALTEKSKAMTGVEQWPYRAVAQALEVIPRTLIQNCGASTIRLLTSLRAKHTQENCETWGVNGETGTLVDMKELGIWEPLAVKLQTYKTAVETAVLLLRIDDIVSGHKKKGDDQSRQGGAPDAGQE

[5] = target: T4, mouse CCTα subunit (wildtype) (mouse, UniProt P11983 1-556); experiment: superimposable bands, 6% non-denaturing PAGE Western blot of mouse testis sucrose fractions 13 and 14, subunit-specific antibodies
T4 construct: in the 23C experiment translated in vitro and incorporated into rabbit CCT; also called CCTa; CCTA

mouse CCTγ subunit = target: T5, mouse CCTγ subunit (mouse, UniProt P80318 1-545); experiment: superimposable bands, 6% non-denaturing PAGE Western blot of sucrose fractions 13 and 14; footnote: not very clear in mouse testis but substantiated in Human 293 cells
T5 construct: Endogenous subunit in mouse testis sucrose fractions
T5 sequence (looked up): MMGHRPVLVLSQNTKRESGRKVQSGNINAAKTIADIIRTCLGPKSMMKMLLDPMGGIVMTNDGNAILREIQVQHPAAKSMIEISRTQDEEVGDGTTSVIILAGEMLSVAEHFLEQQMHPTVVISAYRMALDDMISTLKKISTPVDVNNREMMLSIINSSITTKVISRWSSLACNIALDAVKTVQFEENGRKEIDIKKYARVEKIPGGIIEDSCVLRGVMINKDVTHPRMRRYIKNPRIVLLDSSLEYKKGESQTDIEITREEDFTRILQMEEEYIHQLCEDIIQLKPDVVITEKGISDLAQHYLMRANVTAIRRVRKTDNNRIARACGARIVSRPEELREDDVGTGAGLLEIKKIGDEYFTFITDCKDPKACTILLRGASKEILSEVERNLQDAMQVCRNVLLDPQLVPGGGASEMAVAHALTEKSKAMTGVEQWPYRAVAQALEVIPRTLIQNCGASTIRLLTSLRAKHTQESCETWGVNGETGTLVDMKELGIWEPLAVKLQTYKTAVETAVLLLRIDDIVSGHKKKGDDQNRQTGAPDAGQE

Molecule: biotin-SGSG-AAAAAQGVMVGMGQK [peptide 8.6]
- effect of alanine substitution in GRPRH core sequence on binding to CCT (CCT [1]; free solution assay, derivatives of peptide 8): abrogation of binding to CCT

Molecule: biotin-SGSG-GRPRHQGVMVGMGQK [peptide 8]
- binding of peptide to CCT in free solution (co-migration with CCT complex) (CCT [1]; biotinylated peptide, non denaturing gel): co-migrate with the CCT complex

B1: peptide 8.6, biotin-SGSG-AAAAAQGVMVGMGQK (peptide)
peptide: Biotin-SGSGAAAAAQGVMVGMGQK-NH2
SMILES: CSCC[C@H](NC(=O)CNC(=O)[C@@H](NC(=O)[C@H](CCSC)NC(=O)[C@@H](NC(=O)CNC(=O)[C@H](CCC(N)=O)NC(=O)[C@H](C)NC(=O)[C@H](C)NC(=O)[C@H](C)NC(=O)[C@H](C)NC(=O)[C@H](C)NC(=O)CNC(=O)[C@H](CO)NC(=O)CNC(=O)[C@H](CO)NC(=O)CCCC[C@@H]1SC[C@@H]2NC(=O)N[C@@H]21)C(C)C)C(C)C)C(=O)NCC(=O)N[C@@H](CCC(N)=O)C(=O)N[C@@H](CCCCN)C(N)=O
notes: All five core residues replaced by alanine
- binding result [2]: no binding (tested: peptide 13.3 µM or 1.33 µM, CCT 70 nM)

B2: Cyclin D2: cyclin D2, CCT binding partner (protein, UniProt P30279 1-289, looked up)
G1/S-specific cyclin-D2: MELLCHEVDPVRRAVRDRNLLRDDRVLQNLLTIEERYLPQCSYFKCVQKDIQPYMRRMVATWMLEVCEEQKCEEEVFPLAMNYLDRFLAGVPTPKSHLQLLGAVCMFLASKLKETSPLTAEKLCIYTDNSIKPQELLEWELVVLGKLKWNLAAVTPHDFIEHILRKLPQQREKLSLIRKHAQTFIALCATDFKFAMYPPSMIATGSVGAAICGLQQDEEVSSLTCDALTELLAKITNTDVDCLKACQEQIEAVLLNSLQQYRQDQRDGSKSEDELDQASTPTDVRDIDL
- binding to CCT (binding partner) (CCT [3]): specific binding partners for CCT

B3: human CCTβ subunit (human 293 cells) (other, UniProt P78371 2-535, looked up)
chain: ASLSLAPVNIFKAGADEERAETARLTSFIGAIAIGDLVKSTLGPKGMDKILLSSGRDASLMVTNDGATILKNIGVDNPAAKVLVDMSRVQDDEVGDGTTSVTVLAAELLREAESLIAKKIHPQTIIAGWREATKAAREALLSSAVDHGSDEVKFRQDLMNIAGTTLSSKLLTHHKDHFTKLAVEAVLRLKGSGNLEAIHIIKKLGGSLADSYLDEGFLLDKKIGVNQPKRIENAKILIANTGMDTDKIKIFGSRVRVDSTAKVAEIEHAEKEKMKEKVERILKHGINCFINRQLIYNYPEQLFGAAGVMAIEHADFAGVERLALVTGGEIASTFDHPELVKLGSCKLIEEVMIGEDKLIHFSGVALGEACTIVLRGATQQILDEAERSLHDALCVLAQTVKDSRTVYGGGCSEMLMAHAVTQLANRTPGKEAVAMESYAKALRMLPTIIADNAGYDSADLVAQLRAAHSEGNTTAGLDMREGTIGDMAILGITESFQVKRQVLLSAAEAAEVILRVDNIIKAAPRKRVPDHHPC
- binding result [4]: binds

B4: mouse CCTε subunit (other, UniProt P80316 2-541, looked up)
chain: ASVGTLAFDEYGRPFLIIKDQDRKSRLMGLEALKSHIMAAKAVANTMRTSLGPNGLDKMMVDKDGDVTITNDGATILSMMDVDHQIAKLMVELSKSQDDEIGDGTTGVVVLAGALLEEAEQLLDRGIHPIRIADGYEQAARIAIQHLDKISDKVLVDINNPEPLIQTAKTTLGSKVINSCHRQMAEIAVNAVLTVADMERRDVDFELIKVEGKVGGRLEDTKLIKGVIVDKDFSHPQMPKKVVDAKIAILTCPFEPPKPKTKHKLDVMSVEDYKALQKYEKEKFEEMIKQIKETGANLAICQWGFDDEANHLLLQNGLPAVRWVGGPEIELIAIATGGRIVPRFSELTSEKLGFAGVVQEISFGTTKDKMLVIEKCKNSRAVTIFIRGGNKMIIEEAKRSLHDALCVIRNLIRDNRVVYGGGAAEISCALAVSQEADKCPTLEQYAMRAFADALEVIPMALSENSGMNPIQTMTEVRARQVKESNPALGIDCLHKGSNDMQYQHVIETLIGKKQQISLATQMVRMILKIDDIRKPGESEE
notes: Endogenous subunit in mouse testis sucrose fractions
- binding result [5]: binds

B5: Cyclin D1: mouse cyclin D1 translated in rabbit reticulocyte lysate (protein)
chain: MEHQLLCCEVETIRRAYPDTNLLNDRVLRAMLKTEETCAPSVSYFKCVQKEIVPSMRKIVATWMLEVCEEQKCEEEVFPLAMNYLDRFLSLEPLKKSRLQLLGATCMFVASKMKETIPLTAEKLCIYTDNSIRPEELLQMELLLVNKLKWNLAAMTPHDFIEHFLSKMPEADENKQTIRKHAQTFVALCATDVKFISNPPSMVAAGSVVAAMQGLNLGSPNNFLSCYRTTHFLSRVIKCDPDCLRACQEQIEALLESSLRQAQQNVDPKATEEEGEVEEEAGLACTPTDVRDVDI
- binding to CCT (binding partner) (CCT [3]): specific binding partners for CCT

B6: mouse CCTβ subunit (other, UniProt P80314 2-535, looked up)
chain: ASLSLAPVNIFKAGADEERAETARLSSFIGAIAIGDLVKSTLGPKGMDKILLSSGRDAALMVTNDGATILKNIGVDNPAAKVLVDMSRVQDDEVGDGTTSVTVLAAELLREAESLIAKKIHPQTIISGWREATKAAREALLSSAVDHGSDEARFWQDLMNIAGTTLSSKLLTHHKDHFTKLAVEAVLRLKGSGNLEAIHVIKKLGGSLADSYLDEGFLLDKKIGVNQPKRIENAKILIANTGMDTDKIKIFGSRVRVDSTAKVAEIEHAEKEKMKEKVERILKHGINCFINRQLIYNYPEQLFGAAGVMAIEHADFAGVERLALVTGGEIASTFDHPELVKLGSCKLIEEVMIGEDKLIHFSGVALGEACTIVLRGATQQILDEAERSLHDALCVLAQTVKDPRTVYGGGCSEMLMAHAVTQLANRTPGKEAVAMESFAKALRMLPTIIADNAGYDSADLVAQLRAAHSEGHITAGLDMKEGTIGDMAVLGITESFQVKRQVLLSAAEAAEVILRVDNIIKAAPRKRVPDHHPC
notes: as for B4
- binding result (mouse CCTγ subunit): binds

B7: mouse CCTη subunit (other, UniProt P80313 1-544, looked up)
chain: MMPTPVILLKEGTDSSQGIPQLVSNISACQVIAEAVRTTLGPRGMDKLIVDGRGKATISNDGATILKLLDVVHPAAKTLVDIAKSQDAEVGDGTTSVTLLAAEFLKQVKPYVEEGLHPQIIIRAFRTATQLAVNKIKEIAVTVKKQDKVEQRKMLEKCAMTALSSKLISQQKVFFAKMVVDAVMMLDELLQLKMIGIKKVQGGALEESQLVAGVAFKKTFSYAGFEMQPKKYKNPKIALLNVELELKAEKDNAEIRVHTVEDYQAIVDAEWNILYDKLEKIHQSGAKVILSKLPIGDVATQYFADRDMFCAGRVPEEDLKRTMMACGGSIQTSVNALVPDVLGHCQVFEETQIGGERYNFFTGCPKAKTCTIILRGGAEQFMEETERSLHDAIMIVRRAIKNDSVVAGGGAIEMELSKYLRDYSRTIPGKQQLLIGAYAKALEIIPRQLCDNAGFDATNILNKLRARHAQGGMWYGVDINNENIADNFQAFVWEPAMVRINALTAASEAACLIVSVDETIKNPRSTVDPPAPSAGRGRGQARFH
notes: as for B4
- binding result [5]: binds
